The values that follow come from the nanobody polyreactivity screen of Harvey et al. (2022).

This data set is described as follows: yeast display, Sf9 membrane polyspecificity reagent, FACS + sequencing; frameworks hold sequencing errors. In a few lines:
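Nanobodies from a synthetic yeast display library (Saccharomyces cerevisiae BJ5465), induced 36–48 hours with galactose, were stained 1 hour at 4 °C with 10% biotinylated, detergent-solubilized Sf9 membrane reagent, enriched on streptavidin microbeads, then FACS-sorted. Anti-HA (expression) and streptavidin (reagent binding) fluorescence set low and high (top ~1%) gates. Polyreactivity labels come from the gate of origin. Genes were colony-PCR amplified, MiSeq 2 × 250 sequenced and filtered by CDR length.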
With “QVQLVESGVGLVQAGGSLRLSCAASGNIFGVYAMGWYRQAPGKERELVATITTGGSTYYADSVKGRFTISRDNAKNTVYLQMNSLKPEDSAVYYCAADVGGGNYVYYGNDYDDGYWGQGTQVTVSS”, the “polyreactivity (PSR sort gate)” value is given as “low polyreactivity”. As for “QVQLVESGVGLVQAGGSLRLSCAASGNTFTAYSMGWYRQAPGKERELVAAISSSGRTNYADSVKGRFTISRDNAKNTVYLQMNSLKPADTAVYYCAAAALRRNGVREGNYWGQGTQVTVSS”, the entry is “high polyreactivity”; as for “QVQLVESGVGLVQAGGSLRLSCAASGRIFGAYAIGWYRQAPRKERELVAAISGSGGRTYYADSVKGRFTISRDSEKNTVYLQMNRLKPEDTAVYYCNKGYVYGHEYWGQGTQVTVSS”, “high polyreactivity”; as for “QVQLVESGVGLVQAGGSLRLSCAASGRIFGVYVMGWYRQAPGKERELVAGISPSGGSTYYADSVKGRFTISRDNAKNTVYLQMNSLKPEDTAVYYCAAVLRIRRPRYGYWGQGTQVTVSS”, “high polyreactivity”. As for “QVQLVESGVGLVQAGGSLRLSCAASGRIFRRYTMGWYRQPPGKERELVAAISASGGNTYYADSVKGRFTISRDNAKNTVYLQMNSLKPEDTAVYYCARRWRPWTQDGDDYWGQGTQVTVSS”, the entry is “high polyreactivity”; as for “QVQLVESGVGLVQAGGSLRLSCAASGRIFTGYAMGWYRQAPGKERELVAAITSSGDGTNYADSVKGRFTISRDNAKNTVYLQMNSLKPEDTAVYYCNADGSYKMDWGQGTQVTVSS”, “low polyreactivity”.

Take “QVQLVESGVGLVQAGGSLRLSCAASGRIFYNNVRGWYRQAPGKERELVAGISGNGGSTYYPDSVKGRFTISRDNAKNTVYLQMNSPKPEDTAVYYCAARSSFRTLIFYQKFDYWGQGTQVTVSS”: the “polyreactivity (PSR sort gate)” value is listed as “low polyreactivity”.

As for “QVQLVESGVGLVQAGGSLRLSCAASGRPFVAYAMGWYRQAPGTERELVARISSGGGTYADSVKGRFTISRDNAKNTVYLQMNSLKPEDTAVYYCATSLQRQFDYWGQGTQVTVSS”, the “polyreactivity (PSR sort gate)” value is “low polyreactivity”.

In the case of “QVQLVESGVGLVQAGGSLRLSCAASGRTFEPNAMGWYRHAPGKERELVAGITWSGGSTYYADSVKGRFTISRDNAKNTVYLQMNSLKPEDTAVYYCNAPITWKRSHYGYWGQGTQVTVSS”, the “polyreactivity (PSR sort gate)” value is listed as “low polyreactivity”. As for “QVQLVESGVGLVQAGGSLRLSCAASGRTFFGYAMGWYRQAPGKEREFVARISWRGTSTTYADSVKGRFTISRDNAKNTVYLQMNSLKPEDTAVYYCAASQYGLRVYFTVGYWGQGTQVTVSS”, the entry is “high polyreactivity”; as for “QVQLVESGVGLVQAGGSLRLSCAASGRTFGVYAMGWYRQAPGKESTYYADSVKGRFTISRDNAKNTVYLQMNSLKPEDTAVYYCNARGGFGYITMDYWGQGTQVTVSS”, “low polyreactivity”. As for “QVQLVESGVGLVQAGGSLRLSCAASGRTFISNVMGWYRQAPGKERELVAAISGSSGSTRYADSVKGRFTISRDNAKNTVYLQMISLKPEDTAVYYCAARAPWPKWGYYYWGQGTQVTVSS”, the entry is “high polyreactivity”; as for “QVQLVESGVGLVQAGGSLRLSCAASGRTFSTNAMGWYIQAPGKERELVAAITSRGGSTYYADSVKGRFTISRDNAKNTVYLQMNSLKPEDTAVYYCAVDPLYSKTHYVTLGYYYWGQGTQVTVSS”, “low polyreactivity”; as for “QVQLVESGVGLVQAGGSLRLSCAASGRTISYNARGWYRQAPGKEREFVADINYSAGSTYYADSVKGRFTISRDNAKNTGKLQMNRLKPEDTAVYYCAAKYYGEMYSWGQGTQVSVSS”, “low polyreactivity”. As for “QVQLVESGVGLVQAGGSLRLSCAASGSIFDKNAMGWDRPAPGKERELVAAISRSGGSTYYADSVKGRFTISRDNAKNTVYLQMNSLKPEDTAVYYCNKYTNGRNFDYWGQGTQVTVSS”, the entry is “high polyreactivity”. “QVQLVESGVGLVQAGGSLRLSCAASGSIFFKYAMGWYRQAPGKERELVAGITSTGRTYYADSVKGRFTISRDNAKNTVYLQMNSLKPEDTAVYYCNARTLPTYYRRYDYWGQGTQVTVSS”: the “polyreactivity (PSR sort gate)” value is reported as “high polyreactivity”. Turning to “QVQLVESGVGLVQAGGSLRLSCAASGSIFFPNAMGWYRQAPGKQRELVAAITSTSTNYAESVKGRCTISRDNAKNTVYLQMNSLKPEDTAVYYCAADGEFRRAWYEGDYWGQGTQVTVSS”, the “polyreactivity (PSR sort gate)” value was “low polyreactivity”. For “QVQLVESGVGLVQAGGSLRLSCAASGSIFSPNAMVWSRQAPGKERELVAAITWSGDSTYYADSVKGRFTISRDNAKNTVYLQINSLKREDTEVYYCAADFTYQGSSANDYWGQGSQVTVSS”, the “polyreactivity (PSR sort gate)” value is reported as “low polyreactivity”. The value for “QVQLVESGVGLVQAGGSLRLSCAASGSIFWLYAMGWYRQAPGKERELVAAIDSGDSTKYADSVKGRFTISRDTAKNTVYLQMNSLKPEETAVYYSAKDYYYGLEHYGYWGQGTQVTVSS” was “low polyreactivity”; that for “QVQLVESGVGLVQAGGSLRLSCAASGSTFANNAMGWYRQAPGKERELVAAISWSGGSTYYADSVKGRFTISRDNAKNTVYLQMNSLKPEDTAVYYCAADSPRYGGYGYWGQGTQVTLSS” was “low polyreactivity”; that for “QVQLVESGVGLVQAGGSLRLSCAASGSTFDYYVMGWYRQAPGKVRELVAAISETGDDTYYADSVKGRFTLSRDNAKNTVYLQINRLNPEDTAVYYCAADSYFYSGFVRRFYFWGQGSQVTVSS” was “high polyreactivity”. The value for “QVQLVESGVGLVQAGGSLRLSCAASGSTFLTNVMGWYRQAPGKERELVAAITIGGSTNYADSVKGRFTISRDNAKNSVYLQMNSLKPEDTAVYYCATDIRRKPRYVDYEYWGQGTQVSVSS” was “low polyreactivity”. As for “QVQLVESGVGLVQAGGSLRLSCAASGSTFRRNTMGWYRKAPGKERELVAAINYSGGSTYYADSVKGRFTISRDNAKNTVYLQMNSLKPEDTAVYYCAARYAYDFPYYYWGQGTQVTVSS”, the entry is “high polyreactivity”; as for “QVQLVESGVGLVQAGGSLRLSCAASGSTFVWYAMGWYRQAPGKERELVAVIDWSGGSTSYADSVKGRFTISRDNAKNTVSFQMNSLKPEDTAVYYCAAQQGVISRGNYWGQGTQVTVSS”, “low polyreactivity”; as for “QVQLVESGVGLVQAGGSLRLSCAASGSTFYKYTMGWYRQAPGKESELVSAISRSGGRTYYADSVKGRFTISRDNAKNTVYLQMNSLKPEDTAVYYCAVVTPRYYGDTKYDYWGQGTQVTVSS”, “high polyreactivity”. For the sequence “QVQLVESGVGLVQAGGSLRLSCAASGSTILQNAMGWYRQAPGKERELVAAISRSGGSTYYADSVKGRFTISRDNAKNTVYLQMNSLKPEDTAVYYCAAGGRRYDDDYWGQGTQVTVSS”, the “polyreactivity (PSR sort gate)” value was “high polyreactivity”.

Consider “QVQLVESGVGLVQAGGSLRLSCAASGSTYRYAMGWYRQAPGKERELVAAISRSTGSTYYADSVKGRLTISRDNANNTVNLQMNRLKPEDTAVYYCARDVYYRGYKYGYWGQGTQVTVSS”, for which the “polyreactivity (PSR sort gate)” value is “high polyreactivity”. As for “QVQLVESGVGLVQAGGSLRLSCAASVRIFLFYAMGGYRQAPVKERELVAAITSGGSTYYADSVKGRFTMSRDNAKNTVYLQMNSLKPEDTAVYYCANYYWGQGTQVTVSS”, the entry is “low polyreactivity”. As for “QVQLVESGVGLVQAGGSLRLSCAASVSTFAYNAMGWYRQSPGKEREIVASISWSGGSTYYADSVKGRFTISRDNAKNSVYLQMNSLKPEDTAVYYCAADLNAYPQRAYDYWGQGTQVTVSS”, the “polyreactivity (PSR sort gate)” value is listed as “low polyreactivity”. As for “QVQLVESGVGLVQAGGSLRLSCAAYGYTFYRYAMGWYRQAPGKERELVAAINKSGGRTYYADSVKGRFTISRDNAKNTVYLQMNSLKPEDTAVYYCNTPFDYPDNPEYDYWGQGTQVTVSS”, the entry is “high polyreactivity”.

For the sequence “QVQLVESGVGLVQAGGSLRLSCASSGLIFYDNMGWYRQAPGKERELVAAISSSGGSTSYADSVKGRFTISRDNAKNTVYLQMNSLKPEDTAVYYCAADYRRYGSYDYWGQGTQVTVSS”, the “polyreactivity (PSR sort gate)” value is “low polyreactivity”. As for “QVQLVESGVGLVQAGGSLRLSCASSGRTFTPNGMGWYRQAPGKERELVAAITYGGGITDYADSVKGRFTISRDNAKNTVYLQMNRLNPEDTAVYYCAATTLSFEGGKYWSKYDYWGQGTQVTVSS”, the entry is “low polyreactivity”; as for “QVQLVESGVGLVQAGGSLRLTCAASGSIFSVYAMGWYRPAPGKESELVAAITSSGGLTYYADSVKGRITISRDYAKNSVYLQMTSLIPEDTAVYYCATRGIPDDIARDYWGLGTQVTVSS”, “low polyreactivity”; as for “QVQLVESGVGLVQAGGSLSLSCAASGITFPYVMGWYRQAPGKERELVAAISRTGTSTYYADSVKGRFTSSRDNAKNNVYLEMNTLKPEDTAVYYCAARTQTQVYPAYGYWGQGTQVTVSS”, “high polyreactivity”. As for “QVQLVESGVGLVQAGGTLRLSCAASGSIFDWNVIGWYRQTPGKERELVASISESTDSTYYADSVKGRFTISRDNAKNTVYFQMNSLKPEDTAVYYCATAYPEWAVWGYDYWGQGTQVTLSS”, the entry is “low polyreactivity”.

Regarding “QVQLVESGVGLVQAGGTLRLSCAATGSIFWDYAMGWYRHAPGKERQLVASITSGGSTYYADSVKGRFTISRDNAMNTVYLQMNSLKPEETAVYYCAADGHTRHWGQTGRGAMYYWGQGTQVTVSS”, the “polyreactivity (PSR sort gate)” value is given as “low polyreactivity”. Turning to “QVQLVESGVGLVQAGRSLSLICAASGSTFFLYGMGWYIQAPGKERDLVAAITWNGGSTYYADSVKGRFTISRDNAKNTVYLQMKSLKPEDTAVYYCAADYYGFFSTPYDYWGQGTQVSVSS”, the “polyreactivity (PSR sort gate)” value is on record as “low polyreactivity”. Consider “QVQLVESGVGLVQARGSLRLSCAASGSIFKYYTRRWYRQAPGKERELVSGISYRGGSTYSADSVKGRFTISRDNAKNTVYLQMNSLKPEDTAVYYCYAFLLSGGDYWGQGSQVTVSS”, for which the “polyreactivity (PSR sort gate)” value was “high polyreactivity”. For the sequence “QVQLVESGVGLVQAVGSLRLSCAASGSTFPWYAMGWYRQAPGKERSLVAGSSEGGGSTYYADSVKGRFTISRDNAKNTVYLQMNRLKPEDTAVYYCAADQVGAVYWVGEYGYWGQGTQVTVAS”, the “polyreactivity (PSR sort gate)” value was “low polyreactivity”. As for “QVQLVESGVGLVQPGGSLRLSSAASGSTSLVNAMRRYRQAPGKERELVAAITRGGNTYYADSVKGRFTISRDNAKNTVYLQMNSLKPEDTAVYYCAAEDHSELGQYDYWGQGTQVTVSS”, the entry is “low polyreactivity”. In the case of “QVQLVESGVRLLQAGGSLRLSCAASGRIFGVYAMGWYITAPGKERELVAAIRGGGSTKYADSVKGRFTISRDNAKNTVYLQMKSLKPEDTAVYYFAARKLYYKHDYWGQGTQVTVSS”, the “polyreactivity (PSR sort gate)” value is listed as “low polyreactivity”.
